Experimental data taken from patent US20060172938.

System: T1, cyclic peptide CDMWERVSRC
T1 sequence: CDMWERVSRC

Sequence of Native seprase isolated from LOX cells (chain): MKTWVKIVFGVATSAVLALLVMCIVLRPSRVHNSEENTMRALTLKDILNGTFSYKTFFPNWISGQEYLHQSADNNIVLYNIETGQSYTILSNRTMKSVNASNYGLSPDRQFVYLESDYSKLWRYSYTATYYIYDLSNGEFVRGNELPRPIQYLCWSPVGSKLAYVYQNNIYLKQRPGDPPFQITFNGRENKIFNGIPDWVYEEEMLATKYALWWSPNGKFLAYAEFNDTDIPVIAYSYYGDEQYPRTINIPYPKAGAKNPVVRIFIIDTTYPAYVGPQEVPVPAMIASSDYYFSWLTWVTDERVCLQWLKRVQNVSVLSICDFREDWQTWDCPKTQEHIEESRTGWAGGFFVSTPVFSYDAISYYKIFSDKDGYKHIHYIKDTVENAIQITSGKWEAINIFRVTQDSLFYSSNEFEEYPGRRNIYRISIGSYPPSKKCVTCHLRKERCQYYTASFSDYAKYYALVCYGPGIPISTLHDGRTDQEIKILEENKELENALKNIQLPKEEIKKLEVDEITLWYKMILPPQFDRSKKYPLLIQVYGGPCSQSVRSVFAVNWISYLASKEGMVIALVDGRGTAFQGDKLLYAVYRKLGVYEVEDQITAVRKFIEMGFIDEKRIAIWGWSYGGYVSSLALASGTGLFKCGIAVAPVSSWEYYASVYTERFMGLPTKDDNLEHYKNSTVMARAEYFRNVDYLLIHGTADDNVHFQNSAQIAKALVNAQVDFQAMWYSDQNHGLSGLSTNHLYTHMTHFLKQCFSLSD

Native seprase isolated from LOX cells
increase of the catalytic Km for Gly-Pro-pNA (Lineweaver-Burke analysis): When the concentration of CDMWERVSRC [SEQ ID NO: 3] was 62.5 mM, the catalytic Km value increased by 5 times (from 0.7 mM to 3.5 mM)
